For 1 molecule, stoichiometry N results are on record in article PMC7459424.

The test deals with T1, recombinant Strep-Flag-IL-17 (SF-IL-17), murine (mouse), Q62386.
T1 chain: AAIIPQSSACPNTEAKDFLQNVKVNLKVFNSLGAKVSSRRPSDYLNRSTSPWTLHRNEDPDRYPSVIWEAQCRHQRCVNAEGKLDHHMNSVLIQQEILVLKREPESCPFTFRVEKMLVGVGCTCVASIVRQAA
The test is described as follows: SDS-PAGE without and with DTT, Coomassie stain; purified SF-IL-17 in SDS sample buffer, untreated or reduced with 50 mM DTT. Conditions: remark: other sources report otherwise.

B1: recombinant Strep-Flag-IL-17 (SF-IL-17), murine, Q62386 26-158 (ligand)
chain: T1 chain
As usually defined, the stoichiometry N is the number of molecules, sites or subunits per partner or assembly. Take B1: the stoichiometry N worked out at 2.
